In patent US20250136720A1 (Boehringer Ingelheim, published 2025):

B1: CD137 #B30 (antibody, human IgG1, V domains shown)
VH: QVQLQQSGPQLIRPGASVKISCKASGYSFTGYWIHWVKQRPGQGLEWIGMIDPSDSETRLNQKFKDKATLTVDKSSTTAYMQLSSPTSEDSAVFYCARYRNYGYDGFAHWGQGTLVTVSA
VL: DIVMTQSPSSLTVTAGEKVTMSCKSSQSLLNSGNEKNYLAWYQQKPGQPPKLLIYWASTRESGVPDRFTGSGSGTDFTLTISSVQTEDLAVYHCQNDYSLPLTFGAGTKLELK
notes: human IgG1 KO (L234A/L235A)/kappa chimeric IgG
B2: CD137 #B31 (antibody, human IgG1, V domains shown)
VH: QVQLQQSGPQLIRPGASVKISCKASGYSFTGYWIHWVKQRPGQGLEWIGMIDPSDSETRLNQKFKDKATLTVDKSSTTAYMQLSSPTSEDSAVFYCARYRNYGYDGFAHWGQGTLVTVSA
VL: DIVMTQSPSSLTVTAGEKVTMSCKSSQSLLNSGNEKNYLAWYQQKPGQPPKLLIYWASTRESGVPDRFTGSGSGTDFTLTISSVQTEDLAVYHCQNDYSLPLTFGAGTKLELK
notes: as for B1
B3: CD137 #A3 (antibody, human IgG1, V domains shown)
VH: DVQLQESGPGLVKPSQSLSLTCTVTGYSITSDYGWNWIRQFPGNKVEWMGYISYSGSTSYNPSLKSRISITRDTSKNQFFLQLKSVTTEDTATYYCARSDPYYGISWFAYWGQGPLVTVSA
VL: DIQMTQTTSSLSASLGDRVTISCRASQDISNFLNWYQQKPDGTVKLLIYYTSRLHSGVPSRFSGSGSGTDYSLTISNLEQEDIATYFCQQSHTLPWTFGGGTKLEIK
notes: as for B1
B4: CD137 #B20 (antibody, human IgG1, V domains shown)
VH: EVKLVESEGGLVQPGSSMKLSCTASGFTFSDFYMAWVRQVPEKGLEWVANINYDGSSTYYLDSLKSRFIISRDNARNILYLQMSSLKSEDTATYYCAREGDEGWYFDVWGAGTTVTVSS
VL: DIVMTQSHKFMSTSVGDRVSITCKASQDVSTAVAWYQQKPGQSPKLLIYSASYRYTGVPDRFTGSGSGTDFTFTISSVQAEDLAVYYCQQHYSNPWTFGGGTKLEIK
notes: as for B1
B5: CD137 #B21 (antibody, human IgG1, V domains shown)
VH: EVKLVESEGGLVQPGSSMKLSCTASGFTFSDFYMAWVRQVPEKGLEWVANINYDGSSTYYLDSLKSRFIISRDNARNILYLQMSSLKSEDTATYYCAREGDEGWYFDVWGAGTTVTVSS
VL: DIVMTQSHKFMSTSVGDRVSITCKASQDVSTAVAWYQQKPGQSPKLLIYSASYRYTGVPDRFTGSGSGTDFTFTISSVQAEDLAVYYCQQHYSNPWTFGGGTKLEIK
notes: human IgG1 KO (L234A/L235A)/kappa chimeric IgG; also called CD137 #1; B21 parent
B6: CD137 #B7 (antibody, human IgG1, V domains shown)
VH: EVQLQESGPSLVKPSQTLSLTCSVTGDSITSGYWNWIRKFPGNKLEFMGYITYSGSTYYNPSLKSRISITRDTSRNQFYLQVNSVTTEDTATYFCTRYYYYGSTYYAMDYWGQGTSVTVSS
VL: NIVLTQSPASLAVSLGQRATISCRVSESVDSYGNSFMHWFQQKPGQSPKLLIYLASNLESGVPARFSGSGSRTDFTLTIDPVEADDAATYYCQQNIEDPPTFGGGTKLEIK
notes: as for B1
B7: CD137 #A25 (antibody, human IgG1, V domains shown)
VH: DVQLVESGGGLVQPGGSRKLSCAASGFSFSSFGMHWVRQAPEKGLEWVAYISSGSSTIYYADTVKGRFTISRDNPKNTLFLQMTSLRSEDTAMYYCVRDWTDYWGQGTTLTVST
VL: QIVLTQSPAIMSASLGEEITLTCSATSSVSYMHWSQQKSGTSPKLLIYTTSNLASGVPSRFSGSGSGTFYSLTISSVEAEDAADYYCHQWTTYPWTFGGGTKLEIK
notes: as for B1
B8: CD137 #A26 (antibody, human IgG1, V domains shown)
VH: EVQLQESGPSLVKPSQTLSLTCSVTGDSITSGYWNWNRKFPGNKFEYMGYISYSDSAYYNPSLKSRISITRDTSKNQYYLQLNSVTTEDTATYYCTRWGIPFAFWGQGTLVTVSA
VL: DIKMTQSPSSMYASLGERVTITCKASQDIDSYLYWFQQKPGKSPETLIYHANRLVDGVPSRFSGSGSGQDYSLTISSLEYEDMGIYYCLQYDEFPYTFGGGTKLEIK
notes: as for B1
B9: CD137 #A39 (antibody, human IgG1, V domains shown)
VH: QVQLQQSGAELMKPGSSVKLSCKAPGYKFTDYWIEWVKQRPGHGLDWIGNILPGTINTNSNENFKGKATFTADTSSNTAYMQLSSLTSEDSAVYYCARRSLEYYFDYWGQGTTLTVSS
VL: DIVVTQSPASLAVSLGQRATISCRASQSVSTSRYSYMHWYQQKPGQPPRLLINYASNLESGVPARFSGSGSGTDFTLNIHPVEEEDTATYYCQHTWEIPWTFGGGTKLEIK
notes: as for B1
B10: CD137 #A16 (antibody, human IgG1, V domains shown)
VH: QVQLQQPGAELVKPGASVKLSCKASGYTFTNFWINWVKQRPGQALEWIGNIYPGNDNTNYNGNFKTKATLTVDRSSSTAYMHLSSLTSKDSAVYYCARGQLGLDYWGQGTTLTVSS
VL: DILLTQSPAILSVSPGERVSFSCRASQNIGTTIHWYHQRTNGSPRLLIKFASESISGIPSRFSGSGSGTDFTLSINSVESEDFADYYCQQSNSWPFTFGSGTKLEIK
notes: as for B1
B11: CD137 #B2 (antibody, human IgG1, V domains shown)
VH: QVQLQQPGAELVKPGASVKLSCKASGYTFTNFWINWVKQRPGQGLEWIGNIYPGNTGTNYNERFKTKATLTVDISSSTAYMRLSSLTSEDSAVYYCARGQLGLDYWGQGTTLTVSS
VL: DILLTQSPAILSVSPGERVSFSCRASQIIGTTIQWYQQRTNGSPRLLIKYASESLSGIPSRFSGSGSGTDFTLSINNVESEDIADYYCQQSHSWPFTFGSGTKLEIK
notes: as for B1
B12: CD137 #B13 (antibody, human IgG1, V domains shown)
VH: QVQLQQPGAELVKPGASVKLSCKASGYTFTNFWINWVKQRPGQALEWIGNIYPGNDNTNYNGNFKTKATLTVDRSSSTAYMHLSSLTSKDSAVYYCARGQLGLDYWGQGTTLTVSS
VL: DILLTQSPAILSVSPGERVSFSCRASQNIGTTIHWYHQRTNGSPRLLIKFASESISGIPSRFSGSGSGTDFTLSINSVESEDFADYYCQQSNSWPFTFGSGTKLEIK
notes: as for B1
B13: CD137 #B1 (antibody, human IgG1, V domains shown)
VH: QVQLQQPGAELVKPGASVKLSCKASGYTFTNFWINWVKQRPGQALEWIGNIYPGNDNTNYNGNFKTKATLTVDRSSSTAYMHLSSLTSKDSAVYYCARGQLGLDYWGQGTTLTVSS
VL: DILLTQSPAILSVSPGERVSFSCRASQNIGTTIHWYHQRTNGSPRLLIKFASESISGIPSRFSGSGSGTDFTLSINSVESEDFADYYCQQSNSWPFTFGSGTKLEIK
notes: as for B1
B14: CD137 #A17 (antibody, human IgG1, V domains shown)
VH: QVQLQQPGAELVKPGASVKLSCKASGYTFTNFWINWVKQRPGQALEWIGNIYPGNDNTNYNGNFKSKATLTVDRSSSTAYMHLSSLTSKDSAVYYCARGQLGLDYWGQGTTLTVSS
VL: DILLTQSPAILSVSPGERVSFSCRASQNIGTAIHWYHQRTNGSPRLLIKFASESISGIPSRFSGSGSGTDFTLSINSVESEDFADYYCQQSNSWPFTFGSGTKLEIK
notes: as for B1
B15: CD137 #A49 (antibody, human IgG1, V domains shown)
VH: QVQLQESGPGLVKPSETLSLTCTVSGGSISSYYWSWIRQPPGKGLEWIGYIYYSGSTNYNPSLKSRVTISVDTSKNQFSLKLSSVTAADTAVYYCARDQSGGGSFQHWGQGTLVTVSS
VL: EIVMTQSPLSLPVTPGEPASISCRSSQSLLYSNGYNHLDWYLQKPGQSPQLLIYLGSNRASGVPDRFSGSGSGTDFTLKISRVEAEDVGVYYCMQALQTPPTFGQGTKLEIK
notes: human IgG1 KO (L234A/L235A)/kappa IgG; also called CD137 #7; A49 Parent
B16: CD137 #A27 (antibody, human IgG1, V domains shown)
VH: QVQLQQSGAELTRPGASVKLSCKASGYTFTNYWIQWIKQRPGQGLEWIGTIYPENGDTRYTQKFKGKATLTADKSSSTAYMQLSSLASEDSAVYYCARGLLEGAHYWGQGTTLTVSS
VL: DILLTQSPAILSVSPGERVSFSCRASQSIGASIHWYQQRTNGSPRLLIKFSSESISGIPSRFSGSGSGTDFTLTINSVESEDIADYYCQQTNSWPTAFGGGTKLEMK
notes: as for B1

Each binder was assayed against T1, Human CD137 on Jurkat cells (human, UniProt Q07011 24-255) (assay: flow cytometry, Jurkat cells;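 note: binding of antibody-containing supernatants to NF-kB-Luc2/4-1BB Jurkat cells, detected by flow cytometry with a PE-labelled anti-human IgG-Fc secondary antibody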).
T1 construct: whole, on cells; also called full-length human CD137-expressing Jurkat cell line; NF-kB-Luc2/4-1BB Jurkat
Protocol: Briefly, HTP supernatants containing recombinant IgG1 (KO) antibodies, were assayed by flow cytometry for binding to the NF-kB-Luc2/4-1BB Jurkat cell line. […] The cells were washed x3 with staining buffer. A Goat F(ab′)2 anti-human IgG-Fc PE secondary antibody was added to the cells and the plate was incubated for 30 min at 4° C. The cells were wash ×3 with staining buffer.

Question: Does B1 bind?
Answer: Result: binds

Question: Does B2 bind?
Answer: Result: binds

Question: Does B3 bind?
Answer: Result: binds

Question: Does B4 bind?
Answer: Result: binds

Question: Does B5 bind?
Answer: Result: binds

Question: Does B6 bind?
Answer: Result: binds

Question: Does B7 bind?
Answer: Result: binds

Question: Does B8 bind?
Answer: Result: binds

Question: Does B9 bind?
Answer: Result: binds

Question: Does B10 bind?
Answer: Result: binds

Question: Does B11 bind?
Answer: Result: binds

Question: Does B12 bind?
Answer: Result: binds

Question: Does B13 bind?
Answer: Result: binds

Question: Does B14 bind?
Answer: Result: binds

Question: Does B15 bind?
Answer: Result: binds

Question: Does B16 bind?
Answer: Result: binds
